Test results reported in paper PMC7588232, “Molecular mechanism for direct actin force-sensing by α-catenin” (eLife, 2020).

Molecular target: F-actin (filamentous actin), unlabeled, from chicken skeletal muscle (chicken, UniProt P68139 1-377)
Assay: cryo-EM structure; 0.6 uM F-actin in KMEI applied to the grid, then 10 uM metavinculin ABD or 20 uM α-catenin ABD in KMEI, 25 °C; helical reconstruction (IHRSR, RELION 3.0)
Conditions: both partners purified

Binder | stoichiometry N
H. sapiens α-catenin ABD (αE-catenin 664-906), not Halo-tagged (domain or fragment, residues 699-871 modelled in the map; Form used for cryo-EM; source: E. coli Rosetta2(DE3), purified (Ni-NTA, TEV cleavage, HiTrapQ, Superdex 200; no glycerol); not shown: His6, N-terminal, cleaved; Strep-tag, N-terminal, cleaved) IAGQSARAIMAQLPQEQKAKIAEQVASFQEEKSKLDAEVSKWDDSGNDIIVLAKQMCMIMMEMTDFTRGKGPLKNTSDVISAAKKIAEAGSRMDKLGRTIADHCPDSACKQDLLAYLQRIALYCHQLNICSKVKAEVQNLGGELVVSGVDSAMSLIQAAKNLMNAVVQTVKASYVASTKYQKSQGMASLNLPAVSWKMKAPEKKPLVKREKQDETQTKIKRASQKKHVNPVQALSEFKAMDSI | 1
H. sapiens metavinculin ABD (879-1134), not Halo-tagged (domain or fragment, residues 981-1131 modelled in the map; Form used for cryo-EM; source: E. coli Rosetta2(DE3), purified (Ni-NTA, TEV cleavage, HiTrapQ, Superdex 200; no glycerol); not shown: His6, N-terminal, cleaved; Strep-tag, N-terminal, cleaved) EEKDEEFPEQKAGEVINQPMMMAARQLHDEARKWSSKPGIPAAEVGIGVVAEADAADAAGFPVPPDMEDDYEPELLLMPSNQPVNQPILAAAQSLHREATKWSSKGNDIIAAAKRMALLMAEMSRLVRGGSGTKRALIQCAKDIAKASDEVTRLAKEVAKQCTDKRIRTNLLQVCERIPTISTQLKILSTVKATMLGRTNISDEESEQATEMLVHNAQNLMQSVKETVREAEAASIKIRTDAGFTLRWVRKTPWYQ | 1
